test system: Escherichia coli TOP10; assay: shrunken log2 fold change of peptide-encoding DNA abundance (4.5 h post-induction vs induction); higher = less antimicrobial activity (less host growth inhibition); details: time post-induction: 4.5 h; library: site-saturation at positions 5, 18, 19, 20
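Also: peptides expressed intracellularly from a pBAD plasmid library in pooled LB shake-flask culture, induced with 0.3% L-arabinose, DNA abundance read by NGS, three biological replicates, DESeq2 with apeglm shrinkage.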

| Sequence | shrunken log2 fold change |
| --- | --- |
| RRIRKRPPRLPRPRPRPKFRPRP | 0.00803 |
| RRIRPRPPRLPRPRPRPGCIPRP | -0.0111 |
| RRIRFRPPRLPRPRPRPNNRPRP | -0.139 |
| RRIRLRPPRLPRPRPRPSCEPRP | -0.0674 |
| RRIRPRPPRLPRPRPRPWWWPRP | -0.00448 |
| RRIRSRPPRLPRPRPRPEGDPRP | 0.203 |
| RRIRCRPPRLPRPRPRPKMCPRP | -0.164 |
| RRIRTRPPRLPRPRPRPLGLPRP | 0.207 |
| RRIRDRPPRLPRPRPRPSWPPRP | 0.399 |
| RRIRGRPPRLPRPRPRPVWCPRP | 0.245 |
| RRIRTRPPRLPRPRPRPNYFPRP | -0.062 |
| RRIRLRPPRLPRPRPRPVMEPRP | 0.233 |
| RRIRSRPPRLPRPRPRPERTPRP | 0.0493 |
| RRIRVRPPRLPRPRPRPNINPRP | -0.608 |
| RRIRYRPPRLPRPRPRPIWQPRP | -0.105 |
| RRIRARPPRLPRPRPRPSRWPRP | 0.388 |
| RRIRLRPPRLPRPRPRPGGMPRP | -0.16 |
| RRIRQRPPRLPRPRPRPMLPPRP | -0.384 |
| RRIRMRPPRLPRPRPRPTSMPRP | 0.0931 |
| RRIRDRPPRLPRPRPRPFANPRP | -0.177 |
| RRIRQRPPRLPRPRPRPDKIPRP | -0.00225 |
| RRIRGRPPRLPRPRPRPYHTPRP | -0.779 |
| RRIRFRPPRLPRPRPRPWASPRP | -0.0247 |
| RRIRERPPRLPRPRPRPPFKPRP | -0.0871 |
| RRIRSRPPRLPRPRPRPDRGPRP | -0.0384 |

| Sequence | shrunken log2 fold change |
| --- | --- |
| RRIRPRPPRLPRPRPRPVDMPRP | 0.0425 |
| RRIRGRPPRLPRPRPRPVWHPRP | 0.228 |
| RRIRGRPPRLPRPRPRPFRYPRP | 0.0984 |
| RRIRMRPPRLPRPRPRPAHWPRP | 0.792 |
| RRIRKRPPRLPRPRPRPGQEPRP | 0.053 |
| RRIRYRPPRLPRPRPRPGKIPRP | -0.524 |
| RRIRRRPPRLPRPRPRPQCEPRP | 0.153 |
| RRIRPRPPRLPRPRPRPDPVPRP | 0.214 |
| RRIRYRPPRLPRPRPRPFTFPRP | -1.08 |
| RRIRYRPPRLPRPRPRPLAHPRP | -0.15 |
| RRIRTRPPRLPRPRPRPKHMPRP | -0.081 |
| RRIRWRPPRLPRPRPRPRGYPRP | 0.209 |
| RRIRWRPPRLPRPRPRPWWDPRP | 0.0125 |
| RRIRNRPPRLPRPRPRPWNPPRP | -0.0102 |
| RRIRFRPPRLPRPRPRPPYDPRP | -0.49 |
| RRIRMRPPRLPRPRPRPTEEPRP | -0.000967 |
| RRIRFRPPRLPRPRPRPMFPPRP | -0.368 |
| RRIRCRPPRLPRPRPRPRVVPRP | 0.247 |
| RRIRPRPPRLPRPRPRPSHPPRP | -0.03 |
| RRIRQRPPRLPRPRPRPIGTPRP | 0.0722 |
| RRIRSRPPRLPRPRPRPFAIPRP | -0.638 |
| RRIRPRPPRLPRPRPRPGKLPRP | -0.4 |
| RRIRARPPRLPRPRPRPWYHPRP | -0.0138 |
| RRIRPRPPRLPRPRPRPVRDPRP | 0.146 |
| RRIRERPPRLPRPRPRPASIPRP | -0.327 |

| Sequence | shrunken log2 fold change |
| --- | --- |
| RRIRFRPPRLPRPRPRPDERPRP | -0.0426 |
| RRIRWRPPRLPRPRPRPYRNPRP | -0.552 |
| RRIRSRPPRLPRPRPRPNQWPRP | 0.0342 |
| RRIRRRPPRLPRPRPRPRTLPRP | 0.311 |
| RRIRPRPPRLPRPRPRPCRTPRP | -0.194 |
| RRIRHRPPRLPRPRPRPFHHPRP | 0.0477 |
| RRIRNRPPRLPRPRPRPVHHPRP | -2.09 |
| RRIRQRPPRLPRPRPRPEPQPRP | 0.00762 |
| RRIRNRPPRLPRPRPRPGTAPRP | -0.0363 |
| RRIRLRPPRLPRPRPRPNDKPRP | -0.962 |
| RRIRSRPPRLPRPRPRPEPHPRP | 0.0658 |
| RRIRSRPPRLPRPRPRPTPNPRP | 0.306 |
| RRIRLRPPRLPRPRPRPMHRPRP | -0.274 |
| RRIRCRPPRLPRPRPRPRPPPRP | 1.49 |
| RRIRGRPPRLPRPRPRPPEVPRP | 1.02 |
| RRIRARPPRLPRPRPRPYQAPRP | -0.0488 |
| RRIRCRPPRLPRPRPRPIKRPRP | -0.628 |
| RRIRSRPPRLPRPRPRPALWPRP | 0.825 |
| RRIRMRPPRLPRPRPRPNNTPRP | -0.292 |
| RRIRLRPPRLPRPRPRPRYLPRP | -0.0102 |
| RRIRSRPPRLPRPRPRPTLIPRP | -0.0693 |
| RRIRVRPPRLPRPRPRPSEEPRP | 0.00143 |
| RRIRVRPPRLPRPRPRPEFVPRP | -0.262 |
| RRIRWRPPRLPRPRPRPNMHPRP | -0.00977 |
| RRIRTRPPRLPRPRPRPAQSPRP | 0.343 |

| Sequence | shrunken log2 fold change |
| --- | --- |
| RRIRNRPPRLPRPRPRPKSQPRP | 0.0119 |
| RRIRWRPPRLPRPRPRPDNRPRP | -0.213 |
| RRIRCRPPRLPRPRPRPQYLPRP | -0.964 |
| RRIRARPPRLPRPRPRPEFAPRP | 0.727 |
| RRIRMRPPRLPRPRPRPHYSPRP | -0.624 |
| RRIRSRPPRLPRPRPRPMSLPRP | 0.226 |
| RRIRWRPPRLPRPRPRPRSFPRP | -0.00655 |
| RRIRTRPPRLPRPRPRPGHDPRP | -0.108 |
| RRIRQRPPRLPRPRPRPDFLPRP | -0.338 |
| RRIRLRPPRLPRPRPRPDGMPRP | -0.153 |
| RRIRMRPPRLPRPRPRPISTPRP | 0.166 |
| RRIRLRPPRLPRPRPRPCMNPRP | -0.07 |
| RRIRDRPPRLPRPRPRPWSGPRP | -0.0455 |
| RRIRKRPPRLPRPRPRPSDDPRP | 0.154 |
| RRIRSRPPRLPRPRPRPKLHPRP | -0.0772 |
| RRIRKRPPRLPRPRPRPESWPRP | 1.02 |
| RRIRDRPPRLPRPRPRPRMNPRP | -0.168 |
| RRIRERPPRLPRPRPRPGAMPRP | 0.316 |
| RRIRNRPPRLPRPRPRPKDMPRP | -0.0164 |
| RRIRWRPPRLPRPRPRPAQEPRP | 0.149 |
| RRIRTRPPRLPRPRPRPYPHPRP | 0.0321 |
| RRIRFRPPRLPRPRPRPYSRPRP | -0.187 |
| RRIRHRPPRLPRPRPRPMSDPRP | 0.00234 |
| RRIRNRPPRLPRPRPRPGEHPRP | 0.00902 |
| RRIRSRPPRLPRPRPRPRFLPRP | 0.159 |

| Sequence | shrunken log2 fold change |
| --- | --- |
| RRIRNRPPRLPRPRPRPVTAPRP | -0.248 |
| RRIRCRPPRLPRPRPRPVSQPRP | 0.201 |
| RRIRRRPPRLPRPRPRPGQPPRP | 0.262 |
| RRIRTRPPRLPRPRPRPNTFPRP | -0.668 |
| RRIRRRPPRLPRPRPRPQVQPRP | 0.0152 |
| RRIRPRPPRLPRPRPRPHLVPRP | -0.034 |
| RRIRHRPPRLPRPRPRPQCPPRP | -0.211 |
| RRIRRRPPRLPRPRPRPKGVPRP | 0.401 |
| RRIRQRPPRLPRPRPRPKVGPRP | 0.011 |
| RRIRPRPPRLPRPRPRPQSSPRP | -0.0675 |
| RRIRNRPPRLPRPRPRPGWMPRP | 0.142 |
| RRIRPRPPRLPRPRPRPDEQPRP | 0.318 |
| RRIRARPPRLPRPRPRPLQGPRP | 0.0704 |
| RRIRIRPPRLPRPRPRPRGWPRP | 0.385 |
| RRIRIRPPRLPRPRPRPESDPRP | 0.052 |
| RRIRNRPPRLPRPRPRPAGLPRP | -0.118 |
| RRIRFRPPRLPRPRPRPCKFPRP | -0.0298 |
| RRIRARPPRLPRPRPRPYDTPRP | -0.0699 |
| RRIRYRPPRLPRPRPRPANSPRP | -0.11 |
| RRIRWRPPRLPRPRPRPICDPRP | 0.0755 |
| RRIRHRPPRLPRPRPRPHQDPRP | -0.249 |
| RRIRDRPPRLPRPRPRPGSHPRP | 0.235 |
| RRIRMRPPRLPRPRPRPSKKPRP | -0.0297 |
| RRIRPRPPRLPRPRPRPTFTPRP | 0.101 |
| RRIRSRPPRLPRPRPRPFQSPRP | -0.167 |

| Sequence | shrunken log2 fold change |
| --- | --- |
| RRIRNRPPRLPRPRPRPRLFPRP | 0.0322 |
| RRIRRRPPRLPRPRPRPQNIPRP | -0.33 |
| RRIRTRPPRLPRPRPRPAHIPRP | 0.0726 |
| RRIRWRPPRLPRPRPRPHDFPRP | -0.313 |
| RRIRYRPPRLPRPRPRPIMQPRP | -0.107 |
| RRIRCRPPRLPRPRPRPTFPPRP | -0.0779 |
| RRIRCRPPRLPRPRPRPDECPRP | -0.00243 |
| RRIRRRPPRLPRPRPRPQFQPRP | 0.00665 |
| RRIRPRPPRLPRPRPRPYVDPRP | -0.117 |
| RRIRNRPPRLPRPRPRPACMPRP | 0.0165 |
| RRIRERPPRLPRPRPRPDCSPRP | -0.148 |
| RRIRFRPPRLPRPRPRPCLGPRP | -0.201 |
| RRIRSRPPRLPRPRPRPWDAPRP | 0.069 |
| RRIRGRPPRLPRPRPRPDFKPRP | 0.386 |
| RRIRQRPPRLPRPRPRPEMFPRP | -0.118 |
| RRIRIRPPRLPRPRPRPCCHPRP | -0.486 |
| RRIRKRPPRLPRPRPRPSKCPRP | -0.388 |
| RRIRRRPPRLPRPRPRPWSLPRP | 0.016 |
| RRIRGRPPRLPRPRPRPDVTPRP | 1.31 |
| RRIRQRPPRLPRPRPRPYAWPRP | -0.0963 |
| RRIRHRPPRLPRPRPRPHMCPRP | -0.0681 |
| RRIRIRPPRLPRPRPRPISPPRP | 0.0361 |
| RRIRDRPPRLPRPRPRPRAMPRP | -0.0837 |
| RRIRPRPPRLPRPRPRPYMGPRP | -0.659 |
| RRIRSRPPRLPRPRPRPCCYPRP | 0.145 |
